{"source": "paper PMC9949256", "about": "“Integrated analyses reveal a hinge glycan regulates coronavirus spike tilting and virus infectivity” (Research Square, 2023)", "proteins": {"B1": {"name": "human coronavirus NL63 (HCoV-NL63) spike glycoprotein (S) (natural protein)", "chain": "CNSNANLSMLQLGVPDNSSTIVTGLLPTHWFCANQSTSVYSANGFFYIDVGNHRSAFALHTGYYDANQYYIYVTNEIGLNASVTLKICKFSRNTTFDFLSNASSSFDCIVNLLFTEQLGAPLGITISGETVRLHLYNVTRTFYVPAAYKLTKLSVKCYFNYSCVFSVVNATVTVNVTTHNGRVVNYTVCDDCNGYTDNIFSVQQDGRIPNGFPFNNWFLLTNGSTLVDGVSRLYQPLRLTCLWPVPGLKSSTGFVYFNATGSDVNCNGYQHNSVVDVMRYNLNFSANSLDNLKSGVIVFKTLQYDVLFYCSNSSSGVLDTTIPFGPSSQPYYCFINSTINTTHVSTFVGILPPTVREIVVARTGQFYINGFKYFDLGFIEAVNFNVTTASATDFWTVAFATFVDVLVNVSATNIQNLLYCDSPFEKLQCEHLQFGLQDGFYSANFLDDNVLPETYVALPIYYQHTDINFTATASFGGSCYVCKPHQVNISLNGNTSVCVRTSHFSIRYIYNRVKSGSPGDSSWHIYLKSGTCPFSFSKLNNFQKFKTICFSTVEVPGSCNFPLEATWHYTSYTIVGALYVTWSEGNSITGVPYPVSGIREFSNLVLNNCTKYNIYDYVGTGIIRSSNQSLAGGITYVSNSGNLLGFKNVSTGNIFIVTPCNQPDQVAVYQQSIIGAMTAVNESRYGLQNLLQLPNFYYVSNGGNNCTTAVMTYSNFGICADGSLIPVRPRNSSDNGISAIITANLSIPSNWTTSVQVEYLQITSTPIVVDCATYVCNGNPRCKNLLKQYTSACKTIEDALRLSAHLETNDVSSMLTFDSNAFSLANVTSFGDYNLSSVLPQRNIRSSRIAGRSALEDLLFSKVVTSGLGTVDVDYKSCTKGLSIADLACAQYYNGIMVLPGVADAERMAMYTGSLIGGMVLGGLTSAAAIPFSLALQARLNYVALQTDVLQENQKILAASFNKAINNIVASFSSVNDAITQTAEAIHTVTIALNKIQDVVNQQGSALNHLTSQLRHNFQAISNSIQAIYDRLDSIQADQQVDRLITGRLAALNAFVSQVLNKYTEVRGSRRLAQQKINECVKSQSNRYGFCGNGTHIFSIVNSAPDGLLFLHTVLLPTDYKNVKAWSGICVDGIYGYVLRQPNLVLYSDNGVFRVTSRVMFQPRLPVLSDFVQIYNCNVTFVNISRVELHTVIPDYVDVNKTLQEFAQNLPKYVKPNFDLTPFNLTYLNLSSELKQLEAKTASLFQTTVELQGLIDQINSTYVDLKLLNRFENYIKWPWWVWLIISVVFVVLLSLLVFCCLSTGCCGCCNCLTSSMRGCCDCGSTKLPYYEFEKVHVQ", "modifications": "N-linked glycans at 39 canonical N-glycosylation sites (36 on the crown; N1242, N1247 and N1277 on the stalk), mostly high-mannose", "notes": "Spike glycoprotein S of human coronavirus NL63, full-length S in the viral envelope; ectodomain residues 1 to 1297 (crown model 1-1224, stalk 1216-1297); Trimeric spike imaged in situ on intact virions; The atomic model covers only the crown (to residue 1224); The stalk model is predicted (I-TASSER, AlphaFold, CCBuilder) and fitted by MDFF; also called S trimer"}}, "target": "the molecule itself", "assay": "cryo-EM structure; cryoET and subtomogram averaging of spikes in situ on vitrified, chemically unfixed, purified HCoV-NL63 virions; C3 symmetry imposed; crown 6.9 Å, stalk with membrane 11.5 Å; focused classification of RBD and domain 0", "data": [{"protein": "B1", "values": [{"measurement": "stoichiometry N", "value": 3}]}]}
